Consider one sequence from PMC2757719.

pKd: −log10 of the molar value.

Common to all, as to assay: EMSA
Settings in all cases: 20 mM Tris pH 7.5, 200 mM NaCl, 1 ug salmon sperm DNA, 10 fmol probe, 20 ul, room temperature 10 min; 10% polyacrylamide gel

In data set [1] the target is EBNA1 452-641;USP7 (Epstein-Barr virus;human?) (UniProt P03211+Q93009).
In data set [2] the target is EBNA1 395-641;USP7 (Epstein-Barr virus;human?) (UniProt P03211+Q93009).
For data set [3], the target named is T1, EBNA1 395-641 (Epstein-Barr virus) (UniProt P03211).
T1 sequence: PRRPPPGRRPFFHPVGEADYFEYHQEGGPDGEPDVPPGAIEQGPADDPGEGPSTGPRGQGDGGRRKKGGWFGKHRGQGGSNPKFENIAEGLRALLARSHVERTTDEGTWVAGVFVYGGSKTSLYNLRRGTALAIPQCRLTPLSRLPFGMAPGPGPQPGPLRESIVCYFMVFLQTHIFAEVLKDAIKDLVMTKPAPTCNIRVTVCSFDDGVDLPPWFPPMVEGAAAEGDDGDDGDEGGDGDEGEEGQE

EBNA1 395-641;USP7 (Epstein-Barr virus;human?), sequence (Q93009 whole entry, one chain of several): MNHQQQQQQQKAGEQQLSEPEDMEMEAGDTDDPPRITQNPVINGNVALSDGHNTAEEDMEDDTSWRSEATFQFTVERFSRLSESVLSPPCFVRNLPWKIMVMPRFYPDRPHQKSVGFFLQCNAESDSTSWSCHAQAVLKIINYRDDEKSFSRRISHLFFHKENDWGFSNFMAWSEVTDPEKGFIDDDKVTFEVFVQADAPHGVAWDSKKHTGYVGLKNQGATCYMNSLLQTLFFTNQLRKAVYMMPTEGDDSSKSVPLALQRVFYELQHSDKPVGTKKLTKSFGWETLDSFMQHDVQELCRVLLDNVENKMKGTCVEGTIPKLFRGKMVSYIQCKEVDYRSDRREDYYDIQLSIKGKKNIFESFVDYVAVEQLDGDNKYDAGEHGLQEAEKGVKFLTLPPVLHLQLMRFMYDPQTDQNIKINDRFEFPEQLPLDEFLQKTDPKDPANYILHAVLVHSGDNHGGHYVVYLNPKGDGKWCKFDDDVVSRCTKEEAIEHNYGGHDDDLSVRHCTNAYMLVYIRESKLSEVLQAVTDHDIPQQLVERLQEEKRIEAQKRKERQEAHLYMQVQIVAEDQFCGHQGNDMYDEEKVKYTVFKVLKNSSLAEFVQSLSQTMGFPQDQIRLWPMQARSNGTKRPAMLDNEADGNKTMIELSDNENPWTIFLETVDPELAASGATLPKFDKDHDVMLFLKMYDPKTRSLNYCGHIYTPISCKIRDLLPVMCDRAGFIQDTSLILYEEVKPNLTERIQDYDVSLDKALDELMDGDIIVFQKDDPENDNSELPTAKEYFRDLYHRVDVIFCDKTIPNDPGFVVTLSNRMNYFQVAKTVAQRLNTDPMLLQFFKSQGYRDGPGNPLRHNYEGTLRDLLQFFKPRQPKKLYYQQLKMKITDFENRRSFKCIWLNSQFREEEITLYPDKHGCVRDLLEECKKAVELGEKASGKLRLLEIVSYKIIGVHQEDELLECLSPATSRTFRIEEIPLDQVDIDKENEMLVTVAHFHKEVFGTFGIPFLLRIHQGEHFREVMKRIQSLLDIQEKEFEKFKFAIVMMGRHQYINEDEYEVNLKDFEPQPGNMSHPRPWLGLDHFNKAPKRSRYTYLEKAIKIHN
EBNA1 452-641;USP7 (Epstein-Barr virus;human?), sequence (Q93009 whole entry, one chain of several): as above

Turning to “CGGGAAGCATATGCTACCCG (double strand) [DS site 1 20-mer]”, the binding signal (fold increase vs P3 alone) in data set [1] came out at 4. Also, the figures for the pKd in data set [2] and in data set [3] were 8.40 and 6.63, respectively.
